Measurements: the DeepSol protein solubility set

Assay: soluble on expression in E. coli; label from the status in PepcDB or PDB records

## MSLTASDQFNSTHSAVDQYAELVLHNGRMYTLDPAQPWADAVAIRQGKLIAVGSLASLASLIGPNTRQHDLDGAFCMPGLHDMHTHPDLALAPRYADDLDVGIEDPTPEQLAAAIHAYADSHPGDGWIYGQYWVRYTFREAGLTPGREWLDSVMPHRPVALLDRMWGTMMVNSKALELAGIDRHTSDPRNGYLERDELTGEPNGLLIDGAYALIHAAMPPTPVSVLRRAYRDGVHFQTSRGVTATKYVHVCENRLQALKELDDAGELTLRVEAAISWQDDIFPVRRRWELLSGERHFYRSARLSANAVKFHFDGTVEPKSSYLLTPWPEESSWRGKLNLTPEHITDMVVDMDKRGLRVIAHCTGDGASDVFLDAVAEARRRNGNSGIRHQCAHSTLLHPGNLKRFQALDVIAEFSPAAWYPTPFASGARSGYGQERLKRIYDFKGVLAAGGIAVFGTDWPVASIDPWLALETMVTRQNPWNQEPDTFGDPISLEQALQVATLNGAHAMGLEHLTGSLEAGKSADLIVLDRDLFAQGARNYIHHTQVQLTFVEGQLVYDRQGTEGHHHHHH
  soluble on expression in E. coli: not soluble

## PDPVRLEIFKNLYQFIAEQMGIVLQNTAASVNIKERLDFSCAIFDSSGLLVANAPHIPVHLGSMSESVCSLINDKGETIKPGNVYLSNNPYNGGTHLPDVTAITPVFPETQENPPTPLFYVASRGHQADIGGITPGSMPPHSTTVEEEGILFDNFLLVEAGNFQEIQVRNLLANHLYPARNPDQNIADFQAQIAANERGVKELHKMVAQYGLPIVQVYMKFVQDNAGESVRRAIDVLKDGTFIYEMDGGAKIQVKVTINREKRSAEIDFTGTSEQLNSNFNAPKAVTQAAVLYVFRTLVDDNIPLNAGCLKPLDIIVPEGCMLNPTYPSAVVAGNVETSQTIVDALYGALSVMAASQGTMNNFTFGSDRYQYYETICGGSGAGSNFDGTDAVHTHMTNSLLTDPEVLETRYPVLVESFSLRSDSGGKGKYSGGNGVVRRIRFLEPMTANILSGHRLVPPFGLNGGEAGQVGHNRIERHDGTQENLDSTATAEMQPGDVFVIETPGGGGFG
  soluble on expression in E. coli: not soluble

## MRNTKGNELEDREILASSLHANGISETVLLQIWNATEENLDKLVSALNVYKKGKISITWHEIMTVKENNEAIIPFSVAVQNIYGAFKNIDEELAELARNAIESGWVDAEPRENKPPGGFCAPFFSEKESRISMRYDGSIDSVRILAHELGHAWHFYNMSFEQSSSFLDDYLPMSTAESASIFFETLLINYLIQTTDSIDIKKSLLSWKIRNCFNYVMAIRASFEFEKNFYEKCKESPISADEIEKISIVAQEKAYGNALSEYQPFVWMKYVQFYIADVPFYNYPYTFGYLVSFSLLEIAKENKSTFHSKFKEFLRENGKAPVEELIKKHFEIDITSYAFWDKAFKQISKDIDAYLRLI
  soluble on expression in E. coli: not soluble

## MGSDKIHHHHHHMRTVYIIGSKGIPAKYGGFETFVEKLTEYQKDKSINYFVACTRENSAKSGITGEVFEHNGATCFNIDVPNIGSAKAILYDIMALKKSIEIAKDRNDTSPIFYILACRIGPFIYLFKKQIESIGGQLFVNPDGHEWLREKWSYPVRQYWKFSESLMLKYADLLICDSKNIEKYIHEDYRKYAPETSYIAYGTDLDKSRLSPTDSVVREWYKEKEISENDYYLVVGRFVPENNYEVMIREFMKSYSRKDFVLITNVEHNSFYEKLKKETGFDKDKRIKFVGTVYNQELLKYIRENAFAYFHGHEVGGTNPSLLEALSSTKLNLLLDVGFNREVGEEGAKYWNKDNLHRVIDSCEQLSQEQINDMDSLSTKQVKERFSWDFIVDEYEKLFKG
  soluble on expression in E. coli: not soluble

## MFEFKHIKAFDRAFADNPGPMVVFATPGMLHAGQSLQIFRKWAGNEKNMVIMPGYCVQGTVGHKILSGQRKLEMEGRQVLEVKMQVEYMSFSAHADAKGIMQLVGQAEPESVLLVHGEAKKMEFLKQKIEQELRVNCYMPANGETVTLPTSPSIPVGISLGLLKREMAQGLLPEAKKPRLLHGTLIMKDSNFRLVSSEQALKELGLAEHQLRFTCRVHLHDTRKEQETALRVYSHLKSVLKDHCVQHLPDGSVTVESVLLQAAAPSEDPGTKVLLVSWTYQDEELGSFLTSLLKKGLPQAPS
  soluble on expression in E. coli: soluble

## MKTVMATGTFDIIHPGHGFFLEEARKLGGEDARLVVVLARDSTVRARKRTPIVGEKQRLEVVRMLKPVDEAYLGSETDMFEIVHRIKPDIIAIGPDQKFDVDELRDELRRRGLGCEVRRIEKYRDAELDSTCKIIKRIRSMEFDEDSLKNC
  soluble on expression in E. coli: not soluble

## SNAMHSDALSWGHGPRLFEVFLEPTCPFSVKAFFKLDDLLAQAGEDNVTVRIRLQSQPWHMFSGVIVRCILAAATLEGGKESAKAVMTAVASHREEFEFEHHAGGPNLDATPNDIIARIERYSGLALAEAFANPELEHAVKWHTKYARQNGIHVSPTFMINGLVQPGMSSGDPVSKWVSDIG
  soluble on expression in E. coli: soluble

## MLVTGLEILRKARAEGYGVGAFNTNNMEFTQAILEAAEEMKSPVILALSEGAMKYGGRALTRMVVALAQEARVPVAVHLDHGSSYESVLKALREGFTSVMIDKSHEDFETNVRETKRVVEAAHAVGVTVEAELGRLAGIEEHVAVDEKDALLTNPEEARIFMERTGADYLAVAIGTSHGAYKGKGRPFIDHPRLARIAELVPAPLVLHGASAVPQELVERFRAAGGEIGEASGIHPEDIKKAISLGIAKINTDTDLRLAFTALVRETLGKNPKEFDPRKYLGPAREAVKEVVKSRMELFGSVGRA
  soluble on expression in E. coli: soluble

## MPEAVVLINSASDANSIEQTALPVPMALVHRTRVQDAFPVSWIPKGGDRFSVTAVLPHDHPFFAPVHGDRHDPLLIAETLRQAAMLVFHAGYGVPVGYHFLMATLDYTCHLDHLGVSGEVAELEVEVACSQLKFRGGQPVQGQVDWAVRRAGRLAATGTATTRFTSPQVYRRMRGDFATPTASVPGTAPVPAARAGRTRDEDVVLSASSQQDTWRLRVDTSHPTLFQRPNDHVPGMLLLEAARQAACLVTGPAPFVPSIGGTRFVRYAEFDSPCWIQATVRPGPAAGLTTVRVTGHQDGSLVFLTTLSGPAFSGAAALEHHHHHH
  soluble on expression in E. coli: not soluble

## HTDPGDVVIEELFNRIPETSVWNENERVLSNANHLVSTALWRNEQSFRVESELGERPRTLVRGPVLRDDGSYICLEATDQETGEPLEVHVPYFTERPPSNAIKQLSEQVLRLRLLRGIKNQRQAKAYLRFIFPIDLVKDPKKRKMIRVRLDERDMWVLSRFFLYPRMQSNLHILGDVLLSHSSTHKSLVHHARLQLTLQLIRLAASLQHYGLVHADFQVRNILLDQRGGVFLTGFEHLVRDGASAVSPIGRGFAPPETTAERMLPYRQHHPTLMTFPFDTWTLGLAIYWIWCADLPNTEDAELGGIEWIYRRCKNIPQPVRALLEGFLRYSKEDRLLPLQAMETSEYEQLRTELSAVLPLYQTDGEPA
  soluble on expression in E. coli: soluble

## QGFSQEKYAHNALNRRGFIELKSQARGQISTGGQVLAESYQDEEGFYQRRYVTNPAIYGPIEGYLSDIYGASGMESNLNGVLSGTDSSVSVRRWTDELLGRKHSGANVELTLLPQVQEVAYNQMANAGYEGAVVAIKPSTGEILAMASTPSYDPSAIVNPDTAEQTWAALNADPGNPLLNHATQETLPPGSTFK
  soluble on expression in E. coli: not soluble

## SDKLNKITVPASQKLRQLQKMVHDIKNNEGGIMNKIKKLKVKAPPSVPRRDYASESPADEEQQWSDDFDSDYENPDEHSDSEMYVMPAEENADDSYEPPPVEQETRPVHPALPFARGEYIDNRSSQRHSPPFSKTLPSKPSWPSEKARLTSTLPALTALQKPQVPPKPKGLLEDEADYVVPVEDNDENYIHPTESSSPPPEKAPMVNRSTKPNSSTPASPPGTASGRNSGAWETKSPPPAAPSPLPRAGKKPTTPLKTTPVASQQNASSVCEEKPIPAERHRGSSHRQEAVQSPVFPPAQKQIHQKPIPLPRFTEGGNPTVDGPLPSFSSNSTISEQEAGVLCKPWYAGACDRKSAEEALHRSNKDGSFLIRKSSGHDSKQPYTLVVFFNKRVYNIPVRFIEATKQYALGRKKNGEEYFGSVAEIIRNHQHSPLVLIDSQNNTKDSTRLKYAVKVS
  soluble on expression in E. coli: soluble

## MAHHHHHHMGTLEAQTQGPGSMSFSNVPAGKDLPQDFNVIIEIPAQSEPVKYEADKALGLLVVDRFIGTGMRYPVNYGFIPQTLSGDGDPVDVLVITPFPLLAGSVVRARALGMLKMTDESGVDAKLVAVPHDKVCPMTANLKSIDDVPAYLKDQIKHFFEQYKALEKGKWVKVEGWDGIDAAHKEITDGVANFKK
  soluble on expression in E. coli: soluble

## MFQVPDSEGGRAGSRAMKPPGGESSNLFGSPEEATPSSRPNRMASNIFGPTEEPQNIPKRTNPPGGKGSGIFDESTPVQTRQHLNPPGGKTSDIFGSPVTATSRLAHPNKPKDHVFLCEGEEPKSDLK
  soluble on expression in E. coli: not soluble
